Data from patent publication US20150335719A1, “Intravitreal Injection of a Chimeric Phage Endolysin Ply187; Protection from Staphylococcus aureus Endophthalmitis” (priority 2014, published 2015).

Assays:
S. aureus = test: Antimicrobial activity in the presence of calf vitreous humor in vitro; assay type: cell-based, Staphylococcus aureus; conditions: calf VH, 10^5 CFU, 2, 4 and 6 h
Excerpt: FIGS. 4 A, B and C depict the effect of chimeric Ply187AN-KSH3b on bacterial growth in vivo and in the vitreous humor (VH) in vitro and with increasing inoculums in vitro respectively. […] Twenty-four hours after the treatment, the eyes were enucleated, homogenized and the bacterial burden was estimated via serial dilution plating. FIG. 4B depicts a test showing the effect of the vitreous humor on Ply187AN-KSH3b antimicrobial activity where Ply187AN-KSH3b was mixed with calf vitreous humor and inoculated with 10^5 CFU of S. aureus. The survival of the bacteria was enumerated by CFU count at 2, 4 and 6 h of incubation. Statistical analysis was performed using unpaired student's t test (*, p<0.05; **, p<0.005; ***, p<0.0005). […] An increasing number of dilutions (1:10,000 to 1:10) of logarithmic phase of S. aureus (RN6390 strain) were treated with Ply187AN-KSH3b for 1 h followed by CFU enumeration on TSA plates. Statistical analysis was performed using unpaired student's t test (*, p<0.05; **, p<0.005; ***, p<0.0005).
To determine the effect of Vitreous Humor (VH) on antimicrobial activity of chimeric Ply187AN-KSH3b in vitro, bacteria (10^5 CFU) were incubated with chimeric Ply187AN-KSH3b in the presence of calf VH. Following incubation at 37° C. for the desired time, bacterial growth in VH was enumerated by serial dilution plating. […]

S. aureus strain RN6390 = test: Resistance development assay by repeated exposure in an MIC assay; assay type: cell-based, Staphylococcus aureus; conditions: RN6390, up to 10 rounds of exposure
Experimental: Error bars represent SEM for three independent experiments performed in triplicates. […] Cells surviving at half (½) of the MIC value were used as an inoculum for each subsequent round of exposure. The change in susceptibility is recorded and presented as fold change resistance from day 1 to 10 of exposure and also after 5 days of growth (without any selection pressure) following the 10th day (represented as 10+5). The data represent means±SEM of two independent experiments performed in triplicate.
To verify and quantify the lytic activity against live S. aureus, we have tested Ply187AN-KSH3b in the Turbidity Reduction Assay. The turbidity assay measures the drop in optical density (OD) resulting from lysis of the target bacteria with the phage endolysin-derived protein. Turbidity reduction assays by chimeric Ply187AN-KSH3b were performed in a 96 well plate as described previously by Becker et al. (2009a, 2009b, supra). Briefly, S. aureus strains/isolates RN6390, USA 300, and clinical isolates R2932, R2952 and R3000 were grown to logarithmic phase (OD600 0.4-0.6) at 37° C. in tryptic Soy broth (TSB). The culture was harvested by centrifugation and the pellet was resuspended in assay buffer (400 mM NaCl, 20 mM Tris HCl, 1% glycerol, pH 7.5). Bacterial cultures (100 μl/well) were mixed with 100 μl of (as per MIC) of chimeric Ply187AN-KSH3b protein diluted in the same assay buffer. The reduction in the turbidity was measured after every 5 min up to 1 h using a micro plate reader. EB diluted in the same assay buffer (without chimeric Ply187AN-KSH3b protein) was used as a control (EB C). Resistance development against chimeric Ply187AN-KSH3b was tested using repeated exposure in an MIC assay as described by Rodriguez-Rubio and co-workers (Rodriguez-Rubio et al., PLoS One 8:e64671.). In brief, bacterial cultures (10^5 CFU/well) were exposed overnight to a 2-fold serial dilution of chimeric Ply187AN-KSH3b, lysostaphin, and gentamicin, where the latter serve as controls. […]

staphylococci = conditions: Mao et al.; cited from earlier work
[1] = system: S. aureus R 2932 (CA-MRSA); test: MIC against S. aureus strains (Table 1); assay type: cell-based, Staphylococcus aureus; conditions: mean of three experiments ± SEM
Experimental: (§1) For in vivo studies, an antibiotic sensitive S. aureus (SA) strain RN6390 was used to induce endophthalmitis; whereas, the in vitro studies were performed using antibiotic-resistant strains (Table 1), including USA300, a community-associated methicillin resistant S. aureus (CA-MRSA), and three clinical isolates R2932 (CA-MRSA), R2952 and R3000 (both being hospital-associated MRSA, […]), […]) kindly provided by Dr. Michael J. Rybak (Department of Pharmaceutical Sciences, Wayne State University, Detroit, Mich.). All bacteria were routinely cultured in TSB broth (Tryptic Soy broth, Sigma, St Louis, Mo.) or on TSB agar plates.
(§2) To verify and quantify the lytic activity against live S. aureus, we have tested Ply187AN-KSH3b in the Turbidity Reduction Assay. The turbidity assay measures the drop in optical density (OD) resulting from lysis of the target bacteria with the phage endolysin-derived protein. Turbidity reduction assays by chimeric Ply187AN-KSH3b were performed in a 96 well plate as described previously by Becker et al. (2009a, 2009b, supra). Briefly, S. aureus strains/isolates RN6390, USA 300, and clinical isolates R2932, R2952 and R3000 were grown to logarithmic phase (OD600 0.4-0.6) at 37° C. in tryptic Soy broth (TSB). The culture was harvested by centrifugation and the pellet was resuspended in assay buffer (400 mM NaCl, 20 mM Tris HCl, 1% glycerol, pH 7.5). Bacterial cultures (100 μl/well) were mixed with 100 μl of (as per MIC) of chimeric Ply187AN-KSH3b protein diluted in the same assay buffer. The reduction in the turbidity was measured after every 5 min up to 1 h using a micro plate reader. EB diluted in the same assay buffer (without chimeric Ply187AN-KSH3b protein) was used as a control (EB C). Resistance development against chimeric Ply187AN-KSH3b was tested using repeated exposure in an MIC assay as described by Rodriguez-Rubio and co-workers (Rodriguez-Rubio et al., PLoS One 8:e64671.). In brief, bacterial cultures (10^5 CFU/well) were exposed overnight to a 2-fold serial dilution of chimeric Ply187AN-KSH3b, lysostaphin, and gentamicin, where the latter serve as controls. In every round, 100 μl culture from the wells with growth (½ MIC value) were inoculated into fresh TSB and grown up to logarithmic phase. These cultures were used for the next round of MIC exposure. Bacteria surviving after 10 rounds were grown for an additional 5 rounds in TSB without any selection pressure to allow phenotype-reversion, then MIC were performed to measure the sensitivity to the chimeric Ply187AN-KSH3b after non-selective growth.

[2] = system: S. aureus R 2952 (HA-MRSA); test: MIC against S. aureus strains (Table 1); assay type: cell-based, Staphylococcus aureus; conditions: mean of three experiments ± SEM
Experimental: as §1, §2

[3] = system: S. aureus USA 300 (CA-MRSA); test: MIC against S. aureus strains (Table 1); assay type: cell-based, Staphylococcus aureus; conditions: mean of three experiments ± SEM
Experimental: as §1, §2

S. aureus RN6390 (MSSA) = test: MIC against S. aureus strains (Table 1); assay type: cell-based, Staphylococcus aureus; conditions: mean of three experiments ± SEM
Experimental: as §1, §2

B1: Ply187AN-KSH3b: staphylococcal peptidoglycan hydrolase fusion protein: endopeptidase domain of prophage endolysin Ply187 plus SH3b cell wall-binding domain of phage K endolysin LysK (SEQ ID NO:1) (protein)
chain: MALPKTGKPTAKQVVDWAINLIGSGVDVDGYYGRQCWDLPNYIFNRYWNFKTPGNARDMAWYRYPEGFKVFRNTSDFVPKPGDIAVWTGGNYNWNTWGHTGIVVGPSTKSYFYSVDQNWNNSNSYVGSPAAKIKHSYFGVTHFVRPAYKAEPKPTPPLESTPATRPVTGSWKKNQYGTWYKPENATFVNGNQPIVTRIGSPFLNAPVGGNLPAGATIVYDEVCIQAGHIWIGYNAYNGNRVYCPVRTCQGVPPNQIPGVAWGVFKVEHHHHHH
modifications: Chemically Synthesized Fusion Protein
Question: Which “killing activity in presence of vitreous humor (viable count)” value (S. aureus) does the source give for B1 here?
Answer: does not adversely affect the killing activity

Question: What about the “fold change in resistance” value (S. aureus strain RN6390) of the same molecule?
Answer: failed to develop any resistance

Question: What about the “antimicrobial effectiveness relative to Ply187, Ply187AN and LysK” value (staphylococci) of the same molecule?
Answer: more effective antimicrobial than the full-length Ply187 or the truncated Ply187 (Ply187AN)

Question: And the MIC [1]?
Answer: 4.16 ± 1.04 µg/mL

Question: What about the MIC [2] of the same molecule?
Answer: 8.33 ± 2.08 µg/mL

Question: And the MIC [3]?
Answer: 4.16 ± 1.04 µg/mL

Question: What about the MIC (S. aureus RN6390 (MSSA)) of the same molecule?
Answer: 4.16 ± 1.04 µg/mL
